Assays:
[1] = tested on: AncSZ; assay: phosphorylation enrichment, bacterial display (enrichment ratio); higher = better substrate or ligand; peptides without Tyr show the background
[2] = target: EPHB1 (UniProt P54762); assay: as above
[3] = target: EPHB2 (UniProt P29323); assay: as above
[4] = target: FGFR1 (UniProt P11362); assay: as above
[5] = target: FGFR3 (UniProt P22607); assay: as above
[6] = tested on: Fer (mouse); assay: as above
[7] = target: Fes (UniProt P07332); assay: as above
[8] = target: Fyn (UniProt P06241); assay: as above
[9] = target: Hck (UniProt P08631); assay: as above
[10] = target: Jak2 (UniProt O60674); assay: as above
[11] = target: MERTK (UniProt Q12866); assay: as above
[12] = tested on: c-Abl (mouse); assay: as above
[13] = tested on: c-Src; assay: as above
[14] = target: Grb2 SH2 (UniProt P62993); assay: SH2 binding enrichment of the phosphorylated peptide, bacterial display (enrichment ratio); higher = better substrate or ligand; peptides without Tyr show the background
[15] = target: SHP2-C SH2; assay: as above
[16] = target: c-Src SH2; assay: as above
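For SH2 binding enrichment of the phosphorylated peptide, bacterial display in this document: peptide library displayed on the E. coli surface as eCPX fusions, selected cells deep-sequenced, score is each peptide's frequency after selection divided by its frequency in the input.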
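For phosphorylation enrichment, bacterial display in this document: 11-residue human phosphosite peptides and single-mutation variants displayed on the E. coli surface, counted by deep sequencing, each peptide's frequency after selection divided by its frequency in the unselected input library; frequency after pTyr selection over input frequency; kinase dosed for 20-30% of maximal phosphorylation in three min.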

Chain of Fyn (P06241 whole entry, looked up): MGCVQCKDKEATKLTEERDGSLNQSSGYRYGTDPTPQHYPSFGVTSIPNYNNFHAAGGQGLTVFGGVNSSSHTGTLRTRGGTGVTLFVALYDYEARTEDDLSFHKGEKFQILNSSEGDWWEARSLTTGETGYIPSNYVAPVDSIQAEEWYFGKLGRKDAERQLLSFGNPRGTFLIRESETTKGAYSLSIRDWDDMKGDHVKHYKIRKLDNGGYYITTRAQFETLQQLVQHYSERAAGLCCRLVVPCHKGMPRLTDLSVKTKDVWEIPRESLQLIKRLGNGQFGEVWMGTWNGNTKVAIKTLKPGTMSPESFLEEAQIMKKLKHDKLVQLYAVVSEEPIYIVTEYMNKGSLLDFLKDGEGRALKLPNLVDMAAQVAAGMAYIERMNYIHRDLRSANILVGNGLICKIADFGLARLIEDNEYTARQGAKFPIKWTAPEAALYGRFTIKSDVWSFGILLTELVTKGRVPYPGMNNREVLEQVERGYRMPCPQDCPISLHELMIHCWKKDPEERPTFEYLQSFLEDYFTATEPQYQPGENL
Chain of FGFR3 (P22607 whole entry, looked up): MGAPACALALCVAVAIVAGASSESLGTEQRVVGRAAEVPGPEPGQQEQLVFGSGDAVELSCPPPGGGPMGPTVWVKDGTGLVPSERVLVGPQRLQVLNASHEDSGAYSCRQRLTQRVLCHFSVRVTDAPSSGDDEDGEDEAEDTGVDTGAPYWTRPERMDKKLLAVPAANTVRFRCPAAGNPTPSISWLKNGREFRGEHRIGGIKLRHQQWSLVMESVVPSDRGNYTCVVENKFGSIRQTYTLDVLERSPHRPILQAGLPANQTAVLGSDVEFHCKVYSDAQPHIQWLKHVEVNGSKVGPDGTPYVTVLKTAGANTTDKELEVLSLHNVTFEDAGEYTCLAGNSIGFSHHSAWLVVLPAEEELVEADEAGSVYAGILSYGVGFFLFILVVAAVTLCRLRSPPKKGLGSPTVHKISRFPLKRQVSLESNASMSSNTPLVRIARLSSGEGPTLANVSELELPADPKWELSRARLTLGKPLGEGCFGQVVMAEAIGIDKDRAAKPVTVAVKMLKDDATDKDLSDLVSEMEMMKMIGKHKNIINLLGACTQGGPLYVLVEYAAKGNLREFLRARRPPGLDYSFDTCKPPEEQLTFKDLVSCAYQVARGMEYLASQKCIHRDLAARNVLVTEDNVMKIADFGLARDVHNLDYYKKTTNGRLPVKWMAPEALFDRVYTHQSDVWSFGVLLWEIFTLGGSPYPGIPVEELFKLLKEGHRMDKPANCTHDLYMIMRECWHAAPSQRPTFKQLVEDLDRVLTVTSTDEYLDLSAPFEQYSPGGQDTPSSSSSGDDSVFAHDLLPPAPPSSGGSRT
Chain of EPHB2 (P29323 whole entry, looked up): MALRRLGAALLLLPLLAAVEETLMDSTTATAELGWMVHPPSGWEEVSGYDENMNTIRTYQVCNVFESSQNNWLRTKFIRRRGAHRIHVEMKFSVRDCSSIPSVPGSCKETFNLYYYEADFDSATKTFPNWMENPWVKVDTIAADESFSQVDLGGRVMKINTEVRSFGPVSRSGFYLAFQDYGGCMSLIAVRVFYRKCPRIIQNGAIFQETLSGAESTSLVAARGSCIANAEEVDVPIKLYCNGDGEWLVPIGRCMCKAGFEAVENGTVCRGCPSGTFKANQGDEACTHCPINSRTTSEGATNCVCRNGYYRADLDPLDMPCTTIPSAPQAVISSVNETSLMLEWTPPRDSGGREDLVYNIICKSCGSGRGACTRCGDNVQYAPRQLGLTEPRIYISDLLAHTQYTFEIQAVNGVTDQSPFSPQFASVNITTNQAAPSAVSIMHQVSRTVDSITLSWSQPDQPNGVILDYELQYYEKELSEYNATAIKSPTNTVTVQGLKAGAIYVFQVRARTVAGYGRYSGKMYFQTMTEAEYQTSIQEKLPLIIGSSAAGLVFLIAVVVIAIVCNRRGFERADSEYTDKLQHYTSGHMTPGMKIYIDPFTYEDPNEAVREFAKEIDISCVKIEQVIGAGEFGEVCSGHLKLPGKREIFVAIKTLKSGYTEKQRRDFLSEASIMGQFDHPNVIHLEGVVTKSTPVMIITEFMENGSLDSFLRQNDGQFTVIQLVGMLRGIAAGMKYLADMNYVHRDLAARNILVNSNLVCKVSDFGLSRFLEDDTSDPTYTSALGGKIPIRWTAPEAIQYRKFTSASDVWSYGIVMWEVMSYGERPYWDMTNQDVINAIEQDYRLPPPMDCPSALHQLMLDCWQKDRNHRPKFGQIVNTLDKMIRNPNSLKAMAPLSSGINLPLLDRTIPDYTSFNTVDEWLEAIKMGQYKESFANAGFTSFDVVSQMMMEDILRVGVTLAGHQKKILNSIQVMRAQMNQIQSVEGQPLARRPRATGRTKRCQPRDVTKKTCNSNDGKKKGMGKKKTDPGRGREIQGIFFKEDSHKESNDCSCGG
Chain of MERTK (Q12866 whole entry, looked up): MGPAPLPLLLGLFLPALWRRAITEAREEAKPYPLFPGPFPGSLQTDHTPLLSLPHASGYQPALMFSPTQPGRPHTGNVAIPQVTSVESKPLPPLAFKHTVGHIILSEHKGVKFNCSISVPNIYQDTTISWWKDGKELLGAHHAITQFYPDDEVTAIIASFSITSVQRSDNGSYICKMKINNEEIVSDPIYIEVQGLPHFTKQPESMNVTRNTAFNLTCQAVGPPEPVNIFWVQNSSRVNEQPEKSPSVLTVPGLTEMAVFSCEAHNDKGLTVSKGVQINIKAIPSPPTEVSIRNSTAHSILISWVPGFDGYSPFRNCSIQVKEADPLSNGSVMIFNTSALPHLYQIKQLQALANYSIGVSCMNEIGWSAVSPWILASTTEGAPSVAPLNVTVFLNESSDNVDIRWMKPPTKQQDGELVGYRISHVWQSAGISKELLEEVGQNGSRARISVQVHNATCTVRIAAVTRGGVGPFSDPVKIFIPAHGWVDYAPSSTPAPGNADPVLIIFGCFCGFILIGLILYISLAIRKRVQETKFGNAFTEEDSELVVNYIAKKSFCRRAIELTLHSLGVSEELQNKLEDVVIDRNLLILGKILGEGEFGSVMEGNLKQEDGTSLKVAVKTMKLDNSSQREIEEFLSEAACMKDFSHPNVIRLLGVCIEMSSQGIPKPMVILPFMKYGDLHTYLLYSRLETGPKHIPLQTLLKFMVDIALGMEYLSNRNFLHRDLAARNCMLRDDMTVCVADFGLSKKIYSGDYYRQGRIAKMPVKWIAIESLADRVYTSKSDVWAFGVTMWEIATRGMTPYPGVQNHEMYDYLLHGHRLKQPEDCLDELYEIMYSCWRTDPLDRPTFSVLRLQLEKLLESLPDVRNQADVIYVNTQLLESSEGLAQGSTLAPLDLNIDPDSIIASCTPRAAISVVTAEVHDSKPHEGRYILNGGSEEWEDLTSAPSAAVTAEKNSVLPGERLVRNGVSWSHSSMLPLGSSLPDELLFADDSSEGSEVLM
Chain of FGFR1 (P11362 whole entry, looked up): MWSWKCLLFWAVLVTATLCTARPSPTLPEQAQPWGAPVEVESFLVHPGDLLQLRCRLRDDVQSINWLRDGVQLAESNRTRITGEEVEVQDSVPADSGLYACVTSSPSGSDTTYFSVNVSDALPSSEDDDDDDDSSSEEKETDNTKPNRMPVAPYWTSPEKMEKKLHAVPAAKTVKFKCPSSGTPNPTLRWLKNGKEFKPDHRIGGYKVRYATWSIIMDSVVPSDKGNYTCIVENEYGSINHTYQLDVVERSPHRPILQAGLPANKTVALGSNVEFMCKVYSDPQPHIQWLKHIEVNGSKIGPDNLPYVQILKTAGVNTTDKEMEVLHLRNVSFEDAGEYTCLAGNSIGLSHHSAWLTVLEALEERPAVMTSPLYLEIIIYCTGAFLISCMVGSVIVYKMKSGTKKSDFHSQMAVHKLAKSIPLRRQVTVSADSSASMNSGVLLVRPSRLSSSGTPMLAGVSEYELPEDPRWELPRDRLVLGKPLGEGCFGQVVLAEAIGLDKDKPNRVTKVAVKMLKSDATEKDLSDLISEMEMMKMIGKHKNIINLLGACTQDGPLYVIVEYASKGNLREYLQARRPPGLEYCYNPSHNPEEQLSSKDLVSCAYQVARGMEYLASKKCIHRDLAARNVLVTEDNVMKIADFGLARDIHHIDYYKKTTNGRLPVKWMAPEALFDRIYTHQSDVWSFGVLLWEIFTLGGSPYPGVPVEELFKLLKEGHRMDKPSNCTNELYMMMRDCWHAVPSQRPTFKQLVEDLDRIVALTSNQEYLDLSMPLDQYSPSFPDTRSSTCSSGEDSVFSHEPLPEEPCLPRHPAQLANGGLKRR
Chain of Hck (P08631 whole entry, looked up): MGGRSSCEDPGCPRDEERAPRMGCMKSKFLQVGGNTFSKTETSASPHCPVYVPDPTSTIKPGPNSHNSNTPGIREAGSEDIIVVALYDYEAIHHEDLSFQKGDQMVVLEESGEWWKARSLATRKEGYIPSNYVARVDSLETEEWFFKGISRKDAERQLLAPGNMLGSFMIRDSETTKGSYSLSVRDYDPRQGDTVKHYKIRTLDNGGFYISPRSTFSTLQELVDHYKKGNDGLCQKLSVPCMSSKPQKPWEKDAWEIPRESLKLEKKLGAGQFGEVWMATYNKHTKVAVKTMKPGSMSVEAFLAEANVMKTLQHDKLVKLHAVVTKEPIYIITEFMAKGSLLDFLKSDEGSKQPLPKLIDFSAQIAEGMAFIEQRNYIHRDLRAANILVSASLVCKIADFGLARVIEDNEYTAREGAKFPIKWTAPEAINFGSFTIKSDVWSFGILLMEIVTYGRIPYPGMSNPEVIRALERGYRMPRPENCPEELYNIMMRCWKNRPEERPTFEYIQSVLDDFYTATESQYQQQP
Chain of Grb2 SH2 (P62993 whole entry, looked up): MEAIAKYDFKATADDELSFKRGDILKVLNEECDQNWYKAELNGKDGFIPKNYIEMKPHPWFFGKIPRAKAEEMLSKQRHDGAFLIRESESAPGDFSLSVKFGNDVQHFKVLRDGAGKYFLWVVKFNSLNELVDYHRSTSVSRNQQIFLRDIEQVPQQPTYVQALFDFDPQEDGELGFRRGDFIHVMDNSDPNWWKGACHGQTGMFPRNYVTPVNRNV

| Sequence | phosphorylation enrichment [1] | phosphorylation enrichment [2] | phosphorylation enrichment [3] | phosphorylation enrichment [4] | phosphorylation enrichment [5] | phosphorylation enrichment [6] | phosphorylation enrichment [7] | phosphorylation enrichment [8] | phosphorylation enrichment [9] | phosphorylation enrichment [10] | phosphorylation enrichment [11] | phosphorylation enrichment [12] | phosphorylation enrichment [13] | SH2 binding enrichment [14] | SH2 binding enrichment [15] | SH2 binding enrichment [16] |
| --- | --- | --- | --- | --- | --- | --- | --- | --- | --- | --- | --- | --- | --- | --- | --- | --- |
| RSAGKDDVYLI [MECP2_Y120_Y120D] | 0.755 | 0.551 | 0.603 | 0.513 | 0.594 | 0.521 | 0.862 | 1.14 | 0.616 | 0.658 | 0.399 | 0.486 | 1.25 | 0.854 | 0.478 | 0.581 |
| RSGIFYKPESL [L2HGDH_Y103_H98R_YF] | 0.994 | 0.547 | 0.567 | 0.572 | 0.702 | 0.458 | 0.866 | 0.512 | 0.716 | 0.647 | 0.499 | 0.706 | 0.751 | 0.913 | 0.894 | 0.572 |
| RTIPDYTSFNT [EPHB2_Y912] | 0.893 | 0.866 | 0.632 | 1.2 | 0.991 | 0.417 | 0.66 | 0.63 | 0.561 | 0.978 | 0.538 | 1.02 | 0.923 | 1.12 | 0.926 | 0.813 |
| RVDRDYVLKST [HTATIP2_Y111_A116T] | 0.961 | 0.492 | 0.659 | 0.526 | 0.529 | 0.511 | 0.823 | 0.65 | 0.578 | 0.436 | 0.487 | 0.369 | 0.388 | 1.01 | 0.843 | 0.436 |
| RVFIKYLPEWT [PSEN1_Y240_L235R] | 2.32 | 1.15 | 1.34 | 0.966 | 1.32 | 1.02 | 2.8 | 0.735 | 0.944 | 1.71 | 0.678 | 1.13 | 0.855 | 1.33 | 1.19 | 0.906 |
| RVFRDYVLKSA [HTATIP2_Y111_D108Y_YF] | 0.889 | 0.648 | 0.533 | 0.79 | 0.605 | 0.527 | 1.15 | 0.572 | 0.591 | 1.05 | 0.548 | 0.999 | 0.45 | 0.668 | 1.27 | 0.749 |
| RYMELYDLNRD [BBS2_Y648] | 1.41 | 1.52 | 1.05 | 1.04 | 1.24 | 1.14 | 1.41 | 1.67 | 1.89 | 1.4 | 1.32 | 0.993 | 4.49 | 0.989 | 0.8 | 5.58 |
| SAEEDYIADAK [KCNT1_Y876_M877I] | 1.22 | 0.602 | 0.703 | 0.617 | 0.797 | 0.608 | 1.48 | 0.515 | 0.554 | 1.2 | 0.456 | 0.931 | 0.608 | 0.983 | 0.709 | 0.683 |
| SAEKAYHEQFS [TUBA1A_Y282_L286F] | 0.664 | 0.401 | 0.393 | 0.557 | 0.459 | 0.394 | 0.701 | 0.519 | 0.458 | 0.663 | 0.424 | 0.454 | 0.441 | 0.983 | 0.565 | 0.512 |
| SARFHYLMAEK [LDHB_Y173_R172H] | 0.666 | 0.463 | 0.403 | 0.445 | 0.751 | 0.473 | 0.661 | 0.564 | 0.455 | 0.455 | 0.499 | 0.372 | 0.403 | 0.957 | 0.601 | 0.455 |
| SARSAYQEAID [SFN_Y151_M155I] | 1.02 | 0.461 | 0.405 | 0.573 | 0.685 | 0.395 | 0.994 | 0.434 | 0.523 | 0.875 | 0.471 | 0.83 | 0.516 | 0.896 | 0.705 | 1.06 |
| SCRENYSDSEE [LEMD3_Y258] | 1.07 | 0.607 | 0.619 | 0.547 | 0.694 | 0.434 | 1.14 | 0.52 | 0.502 | 1 | 0.539 | 0.792 | 0.475 | 1.05 | 0.832 | 0.78 |
| SCRENYSYSEE [LEMD3_Y258_D260Y] | 1.18 | 0.66 | 0.604 | 0.561 | 0.76 | 0.48 | 1.22 | 0.512 | 0.548 | 0.892 | 0.428 | 0.652 | 0.47 | 1.04 | 1.08 | 1.66 |
| SDFFAYSPVRE [H6PD_Y449_YF] | 0.928 | 0.614 | 0.591 | 0.422 | 0.675 | 0.821 | 1.02 | 0.514 | 0.68 | 1.01 | 0.473 | 0.615 | 0.573 | 0.798 | 1.06 | 1.37 |
| SDTGQYQCLVF [AXL_Y115] | 1.33 | 0.867 | 0.9 | 1.65 | 1.65 | 2.7 | 1.26 | 2.03 | 3.09 | 0.969 | 1.77 | 1.86 | 1.64 | 0.582 | 0.563 | 0.449 |
| SEASYYKSLNL [NGEF_Y289] | 0.827 | 0.499 | 0.56 | 1.29 | 0.979 | 0.497 | 0.793 | 0.539 | 0.643 | 1.1 | 0.659 | 0.615 | 0.515 | 0.718 | 0.644 | 0.588 |
| SECCKYKIDNP [OSMR_Y689] | 0.642 | 0.464 | 0.416 | 0.756 | 0.488 | 0.407 | 0.786 | 0.411 | 0.381 | 0.658 | 0.419 | 0.539 | 0.46 | 0.94 | 0.393 | 0.472 |

| Sequence | phosphorylation enrichment [1] | phosphorylation enrichment [2] | phosphorylation enrichment [3] | phosphorylation enrichment [4] | phosphorylation enrichment [5] | phosphorylation enrichment [6] | phosphorylation enrichment [7] | phosphorylation enrichment [8] | phosphorylation enrichment [9] | phosphorylation enrichment [10] | phosphorylation enrichment [11] | phosphorylation enrichment [12] | phosphorylation enrichment [13] | SH2 binding enrichment [14] | SH2 binding enrichment [15] | SH2 binding enrichment [16] |
| --- | --- | --- | --- | --- | --- | --- | --- | --- | --- | --- | --- | --- | --- | --- | --- | --- |
| SEDSEYYKAFE [CASQ2_Y178] | 1.71 | 0.656 | 0.611 | 0.58 | 0.98 | 0.535 | 1.16 | 0.621 | 0.61 | 1.17 | 0.494 | 0.695 | 0.698 | 0.827 | 0.614 | 0.558 |
| SEPSGYQDNIA [DES_Y363_A360P] | 1.02 | 0.546 | 0.595 | 0.488 | 0.708 | 0.525 | 1.05 | 0.724 | 0.505 | 0.953 | 0.426 | 0.753 | 0.47 | 0.743 | 0.92 | 0.476 |
| SETDDYAEIID [PTK2_Y397] | 1.53 | 0.877 | 0.838 | 0.748 | 1.01 | 0.688 | 1.6 | 0.573 | 0.702 | 1.57 | 0.625 | 1.05 | 0.744 | 1.04 | 0.627 | 0.561 |
| SFCFRYRCAAQ [SUMF1_Y344_R349Q_YF] | 1.25 | 0.427 | 0.523 | 0.47 | 0.463 | 0.402 | 0.762 | 0.411 | 0.514 | 0.745 | 0.553 | 0.682 | 0.555 | 1.52 | 2.02 | 1.45 |
| SFGMVYEGNAR [INSR_Y1038] | 0.629 | 0.479 | 0.413 | 0.41 | 0.474 | 0.377 | 0.775 | 0.526 | 0.784 | 0.672 | 0.323 | 0.616 | 0.966 | 0.879 | 0.798 | 0.536 |
| SGFESYGSSSF [RPA2_Y9_YF] | 0.591 | 0.433 | 0.432 | 0.443 | 0.539 | 0.389 | 0.601 | 0.448 | 0.481 | 0.436 | 0.348 | 0.436 | 0.368 | 0.761 | 0.574 | 0.404 |
| SHNKFYMLVAH [MFSD8_Y134_R139H_YF] | 1.42 | 0.865 | 0.668 | 0.652 | 0.99 | 0.791 | 1.35 | 0.554 | 0.695 | 1.18 | 0.583 | 0.922 | 0.447 | 1.25 | 1.28 | 0.978 |
| SHRQDYLVGNK [GSTA1_Y147_G144R] | 0.441 | 0.488 | 0.431 | 0.324 | 0.415 | 0.334 | 0.665 | 0.435 | 0.397 | 0.466 | 0.311 | 0.867 | 0.385 | 0.55 | 0.802 | 0.501 |
| SIKGKYVTALY [KCNH2_Y611_D609G] | 0.498 | 0.366 | 0.374 | 0.367 | 0.357 | 0.329 | 0.552 | 0.432 | 0.465 | 0.431 | 0.358 | 0.517 | 0.318 | 0.826 | 0.776 | 0.472 |
| SLAARYFNWVC [FLT4_Y1230_S1235C_YF] | 1.21 | 0.61 | 0.656 | 0.661 | 0.822 | 0.546 | 1.2 | 0.38 | 0.435 | 0.997 | 0.514 | 0.899 | 0.397 | 2.08 | 1.59 | 1.43 |
| SLAARYYNWVS [FLT4_Y1230] | 1.06 | 0.756 | 0.83 | 5.38 | 3.55 | 0.817 | 1.15 | 0.512 | 0.569 | 1.48 | 5.97 | 0.933 | 0.746 | 14.2 | 2.19 | 3.84 |
| SLDLSYYTTSS [EMD_Y181_P183T] | 0.921 | 0.596 | 0.601 | 0.872 | 0.989 | 0.462 | 1.12 | 0.53 | 0.576 | 1.45 | 0.614 | 0.976 | 0.755 | 0.955 | 0.851 | 1.58 |
| SLHPGYNFRYA [P2RX7_Y291_Y288H] | 0.657 | 0.351 | 0.497 | 0.431 | 0.545 | 0.442 | 0.949 | 0.424 | 0.492 | 0.925 | 0.622 | 0.637 | 0.454 | 1.09 | 1.93 | 0.556 |
| SLIDGYFRLTA [JAK2_Y372_YF] | 1.1 | 0.539 | 0.716 | 0.605 | 0.875 | 0.514 | 1.26 | 0.493 | 0.583 | 5.46 | 0.429 | 0.732 | 0.483 | 1.01 | 5.5 | 1.13 |
| SLNEEYAKNKT [MSH2_Y563_T564A] | 0.765 | 0.394 | 0.579 | 0.472 | 0.538 | 0.318 | 0.877 | 0.413 | 0.362 | 0.791 | 0.43 | 0.674 | 0.45 | 0.949 | 0.759 | 0.482 |
| SNKLTYGTVVF [ACOX1_Y275_M278V] | 0.777 | 0.524 | 0.725 | 0.466 | 0.617 | 1.01 | 0.845 | 8 | 3.09 | 0.685 | 0.416 | 0.613 | 5.78 | 0.92 | 4.29 | 0.597 |

From the supplement of paper PMC10065799, “High-throughput profiling of sequence recognition by tyrosine kinases and SH2 domains using bacterial peptide display” (eLife, 2023)
